Data taken from patent publication US20070166779.

Assays:
[1] = system: SLPI present in human saliva
[2] = system: recombinant human SLPI
Chain of recombinant human SLPI (chain, as listed by the source): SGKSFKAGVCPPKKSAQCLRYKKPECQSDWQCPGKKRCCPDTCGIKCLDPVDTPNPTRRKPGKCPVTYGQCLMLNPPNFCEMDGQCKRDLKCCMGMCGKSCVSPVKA

Chain of tryptase (chain, as listed by the source): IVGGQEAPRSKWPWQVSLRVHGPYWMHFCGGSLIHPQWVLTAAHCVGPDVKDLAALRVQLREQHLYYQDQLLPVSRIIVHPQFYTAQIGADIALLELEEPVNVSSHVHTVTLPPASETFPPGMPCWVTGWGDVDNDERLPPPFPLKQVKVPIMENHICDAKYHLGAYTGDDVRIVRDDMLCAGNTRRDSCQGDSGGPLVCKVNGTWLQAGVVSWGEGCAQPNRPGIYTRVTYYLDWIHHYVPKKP

Substance: tryptase
- cleavage of SLPI in human saliva, Western analysis [1]: The larger SLPI cleavage product was not observed when the saliva samples were incubated with cathepsin G, tryptase and proteinase 3
- cleavage of rSLPI, LC/MS (1 ug rSLPI, 50 ng protease, 5 hours) [2]: did not result in the formation of the second peak
- cleavage of the reduced form of rSLPI [2]: Reduction of the rSLPI samples in the presence of the proteases did result in cleavage of the SLPI protein
